In patent publication US20220064648, “NOVEL X-[…] FOR THE USE IN DETECTION OF SNAP25” (Galderma Holding S.A., published 2022) one finds binding signal data, which are given here for six molecules.

The target of data set [1] is T1, SNAP25 full length (FLAG and MYC tagged) (Homo sapiens, UniProt P60880 SEQ:12-217). The data set is described as follows: ELONA. To be noted: tags: FLAG and MYC. The source says:
(§1) The data in Table 2 was collected by running direct ELISA assays on the 96 X-aptamers, elucidating their ability to bind SNAP25, SNAP25 fragments (PEP1, PEP2, PEP3, and PEP4), and a negative control. The X-aptamers were biotinylated and immobilized onto streptavidin-coated plates and were utilized as detection molecules. Higher numbers represent strong binding. The negative control peptide is a random peptide to measure the amount of binding that occurs to a random amino acid sequence.

Data set [2] addresses T1, SNAP25 full length (FLAG and MYC tagged). The data set is described as follows: ELONA; full-length SNAP25. To be noted: tags: FLAG and MYC.
From the text: as §1

The target in data set [3] is T2, SNAP25 Peptide 3 (PEP3; only a fragment of it is a SNAP25 subsequence) (Homo sapiens, UniProt P60880 SEQ:1-33).
T2 chain: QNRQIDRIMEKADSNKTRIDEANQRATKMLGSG
The data set is described as follows: ELONA.
From the text: as §1

T1 sequence (P60880 whole entry, the tested form may be a part): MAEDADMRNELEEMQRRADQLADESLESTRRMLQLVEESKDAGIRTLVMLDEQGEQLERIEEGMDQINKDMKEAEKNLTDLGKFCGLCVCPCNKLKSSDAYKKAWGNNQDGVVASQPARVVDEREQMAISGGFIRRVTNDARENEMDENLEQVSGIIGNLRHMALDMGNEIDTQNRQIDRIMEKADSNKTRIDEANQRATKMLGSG

B1: SNAP.08 (ssDNA)
DNA: TTTTTAACACGACTGAAGTTCGCCAGGCGAACATCGTGGTGGTCGTGCCATG
modifications: W indole, X amine, Y phenol modified dU [14,19,20,34,40,43,46]
As for B1, the binding signal in data set [1] was determined as 35 ELISA signal.

B2: PEP 4.10 (ssDNA)
DNA: TTTTTAAGCCCACAAGACTGTGCGTCGCACAGATTGGCATCGTCGTGCCATG
modifications: W indole, X amine, Y phenol modified dU [19,25,34,35,40,43,46]
In turn, B2 registered a binding signal in data set [2] of 4 ELISA signal.

B3: PEP 4.11 (ssDNA)
DNA: TTTTTAAGCCCACCCGAGTTCGTCCAGCGAACCACGCGCGTGTCGTGCCATG
modifications: W indole, X amine, Y phenol modified dU [19,20,23,43,46]
B3 displayed a binding signal in data set [2] of 0 ELISA signal.

B4: PEP 4.09 (ssDNA)
DNA: TTTTTAACACGACATATGTTCGACGGACACAGTGTGTGGCGGTCGTGCCATG
modifications: W indole, X amine, Y phenol modified dU [15,17,19,20,35,43,46]
In the case of B4, the binding signal in data set [2] is 0 ELISA signal.

B5: SNAP.07 (ssDNA)
DNA: TTTTTAACACGACCGGGCTGTGCACATCGAACACTGCGGTCGTCGTGCCATG
modifications: W indole, X amine, Y phenol modified dU [19,27,35,40,43,46]
As for B5, the binding signal in data set [1] amounted to 38 ELISA signal.

B6: PEP 3.09 (ssDNA)
DNA: TTTTTAAGCCCACTGCACTGTGTACATCGAACTGCACCAACGTGGGCCCATG
modifications: W indole, X amine, Y phenol modified dU [14X,19Y,23W,27X]
As to B6, the binding signal is 196 ELISA signal in data set [3] and 168 ELISA signal in data set [2].
